Reference: the supplement of paper PMC9170038

Test system: MS2 coat protein
Experiment: apparent KD of MS2 coat protein; designed switch direction (-1 OFF switch, 1 ON switch): -1; higher = weaker reporter binding
In short: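 The reported apparent KD is a per-design median over clusters, from curve fits of normalised cluster fluorescence. Protein titrations used SNAP-549-labelled MS2 coat protein, doubled from 0.7 or 1.5 nM to 3 µM, in Tris-HCl pH 7.5 buffer with KCl, MgCl2, BSA, DTT, tRNA and Tween-20, with no input, 200 uM small-molecule ligand, or an oligonucleotide input. The RNA switches were transcribed on Illumina chips by stalled E. coli RNA polymerase.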

[1] = input ligand: microRNA oligo, concentration not stated
[2] = Eterna round: R95, input ligand: FMN 200 uM
[3] = Eterna round: R95, input ligand: microRNA oligo, concentration not stated
[4] = Eterna round: R95, input ligand: none

| Sequence | apparent KD of MS2 coat protein (input ligand: FMN 200 uM) [nM] | apparent KD of MS2 coat protein [1] [nM] | apparent KD of MS2 coat protein (input ligand: none) [nM] | apparent KD of MS2 coat protein [2] [nM] | apparent KD of MS2 coat protein [3] [nM] | apparent KD of MS2 coat protein [4] [nM] |
| --- | --- | --- | --- | --- | --- | --- |
| CUGAACCCGGUAGGAUAUAUUGUGGGCAAGCAUGGAACGACAUGAGGAUCACCCAUGUAAUUUAGGUAGAAGGGCCAAGAGAUU [Excl-NG2-LRO10] (Eterna round: R96, puzzle: Exclusion NG 2) | 74.2 | 41.8 | 73.7 | – | – | – |
| GCAAGCUUUUGCUCGUCUUACAUGAGGAUCACCCAUGUUGGGUCCGGUCGCCGCGGCCGGGCCGGCCGGGCGCCGGG [-38, -65.5 kcal, A 10%] (Eterna round: R97, puzzle: Sensor, turn-off variant 1) | 31.2 | – | 33.3 | – | – | – |
| CGUGACUCAGGAUAUCUAUUGUAUCACAUGAGGAUCACCCAUGUCCAGCGAAAGCUGGAGGGAGAAGGGAGUCACG [Fiskers Ex 5 - 46] (puzzle: Exclusion 5) | – | – | – | 48.6 | 204 | 186 |
| UGCGGUAGAGGAUAUACGUAGAAAUAGAUUCAUGUAAAACUACAUGAGGAUCACCCAUGUAGAAGGCUAUCGCU [JL-ex2-4.27 Eli mod] (Eterna round: R97, puzzle: Exclusion 2) | 265 | – | 25.8 | – | – | – |
| CGGCAUGAAGGAUAUACAUGAGGAUCACCCAUGUAAGUUACCUACAUGGCCUCACCUAGUAGAAGGUUAUCCGG [Eternabot (L2) Solution 72] (Eterna round: R97, puzzle: Exclusion 3) | 94.4 | – | 28 | – | – | – |
| AUUGGACACUCAGGAUAUCAGGUUCUAUACAUGAGGAUCACCCAUGUGGGCGAACCCAUGAUAGCUGAGAAGGGAGUAAUCCUA [Orxete] (Eterna round: R96, puzzle: Exclusion NG 2) | 39 | 11.9 | 19.4 | – | – | – |
| GGUUGGCGAGGAUAUACAUGAGGAUCACCCAUGUCAGAGAAAAAAGUGAGGAAGAAAAGUAGAAGGCGCUGACG [salish99_ex3_r3_017] (puzzle: Exclusion 3) | – | – | – | 199 | 210 | 118 |
| CUUUUGUGAGGAUAUUAGUAGUAAAUAAAUUAAAUUACUACUGAGAAGGCACAUGAGGAUCACCCAUGUUCCUC [salish99_ex4_r3_057] (puzzle: Exclusion 4) | – | – | – | – | 32 | – |
| CUCAUGUGAGGAUAUCAGUAGUGAUACGAUAGUAUUACUGCUGAGAAGGUACAUGAGGAUCACCCAUGUUCCUC [Exclusion 4 - Mod Omei Ex4 344 mod 4 v.3] (puzzle: Exclusion 4) | – | – | – | – | 26.9 | – |
| UGUUGUUGAUAGGAUAUACUUGUAGGAGUAGGAGUAGAAGGAUCUACAUGAGGAUCACCCAUGUAGGAGUGAGA [JR_E6_Sub003] (puzzle: Exclusion 6) | – | – | – | 18.2 | 16.6 | 15.7 |
| CAUGCUUCAUAGGAUAUGGAAGACGUACCGUCGCUAGAAGGAUGAACAUGAGGAUCACCCAUGUAAUACAGGGC [Eternabot (L2) Solution 64] (Eterna round: R97, puzzle: Exclusion 6) | 169 | – | 68.6 | – | – | – |
| UCACGGGAUUGAGGAUAUAUAUAAAUUUAUACAAUAGAAGGCAAAUUUUUAGUUUUUUCACUUUACAUGAGGAUCACCCAUGUU [JR_ExcBG1_Sub083] (Eterna round: R96, puzzle: Exclusion NG 1) | – | 20.1 | – | – | – | – |
| UCCAGGCGAGGAUAUACAAAGAUUUUUUCGUUUAGUCUCGAACAUGAGGAUCACCCAUGUAGAAGGUGCUUCAC [JR_Ex2_Sub011] (Eterna round: R97, puzzle: Exclusion 2) | 46.6 | – | 48.3 | – | – | – |
| UUUUUGUUUUUGUUUUUUGACAUGAGGAUCACCCAUGUCACGAGCAGAUCUUCAUGCAAGCUUUUUGCUCGUCUUAU [Sensor v3 - Turn-off variant 1 - 39] (puzzle: Sensor v3, turn-off variant 1) | – | – | – | 62.8 | 46.9 | 83.3 |
| UUUUUAUAUGAAGGAUAUACUUAACAUGAGGAUCACCCAUGUGGUGUUGUGAGUGAGUGAGUUUAGUAGAAGGUCAAUUAUCUU [JMF's solution 14] (Eterna round: R96, puzzle: Exclusion NG 2) | 699 | 309 | 373 | – | – | – |
| AUAAAUCAUGUAGGAUAUGCGUGGCGAAGCUAUGCAGAAGGACAUGAGGAUCACCCAUGUGCUUCCGUCUGCGUACAGACGGAA [Mat - Exclusion NG 1 - Mod of JL - D35] (Eterna round: R96, puzzle: Exclusion NG 1) | 64.8 | 228 | 190 | – | – | – |
| CCGUAGUCAGGAUAUACAUGAGGAUCACCCAUGUAAAAUUUUAAUUUAAUUUGAAGGUGUAGAAGGGACCAGCC [Ex3 #28] (Eterna round: R97, puzzle: Exclusion 3) | 33.5 | – | 35.6 | – | – | – |

| Sequence | apparent KD of MS2 coat protein (input ligand: FMN 200 uM) [nM] | apparent KD of MS2 coat protein [1] [nM] | apparent KD of MS2 coat protein (input ligand: none) [nM] | apparent KD of MS2 coat protein [2] [nM] | apparent KD of MS2 coat protein [3] [nM] | apparent KD of MS2 coat protein [4] [nM] |
| --- | --- | --- | --- | --- | --- | --- |
| UACGAGUUAGGAUAUGCAUUGGGCUCGCUUUCCUUCGAUAAACUUGAGGAUCACCCAAGUAGAAGGAACUUGUA [Mod 35 - Jieux - Exclusion 2] (Eterna round: R97, puzzle: Exclusion 2) | 42.3 | – | 16.4 | – | – | – |
| AGUGCGUAUGUGAGGAUAUGCUGGUCCUUGGCUCGGCAGAAGGCACAUGAGGAUCACCCAUGUGGUGUCGUACU [salish99_Bmod_ex4_066] (puzzle: Brourd's mod of Exclusion 4) | – | – | – | – | 148 | – |
| AUCAACGUGUUAGGAUAUAAGCCUAAAAGAGACUUAGAAGGGACAUGAGGAUCACCCAUGUCGGGCGCCCAAGCUAUGCGACCU [Eternabot solution 4] (Eterna round: R96, puzzle: Exclusion NG 1) | 32.8 | 17.4 | 26.3 | – | – | – |
| AAGAGUGCAGGAUAUACGUGAGAAAGGAGGAUGAGAGAAGGACAUGAGGAUCACCCAUGUAGAAGGGCAGAGAG [JR_Exclu2_Sub060] (puzzle: Exclusion 2) | – | – | – | 29.8 | 36.4 | 76.8 |
| CCAUCGUGUGUGAGGAUAUGCUGGUCCUUGGAUCAGCAGAAGGCACAUGAGGAUCACCCAUGUGAAUACGAUGG [Mat - Exclusion 4 - JL Mod - D87] (puzzle: Brourd's mod of Exclusion 4) | – | – | – | – | 14.9 | – |
| GUAGAGUCAGGAUAUACGAGAUCGAAAGAUCUUUGAUCCUUACAUGAGGAUCACCCAUGUAGAAGGGACUCUAC [Omei mod 2 to Eli's favorate candidate (ch.parushev)] (Eterna round: R97, puzzle: Exclusion 2) | 513 | – | 43.2 | – | – | – |
| AAGGGUACUUUCGGAACGACAUGAGGAUCACCCAUGUAUACUGAGGAUAUCCACUACUAAGGACGGGAGAAGGCAGUGUACUGU [Ex NG3 #79] (Eterna round: R96, puzzle: Exclusion NG 3) | 26.1 | 12.6 | 16.6 | – | – | – |
| AUUUUAUAUGAAGGAUAUACUUAACAUGAGGAUCACCCAUGUGGUGUUGUGAGUGAGUGAGUUUAGUAGAAGGUCAAUUAUUUU [JMF's solution 32] (Eterna round: R96, puzzle: Exclusion NG 2) | 781 | 167 | 257 | – | – | – |
| UUAUACGUUGAGGAUAUGCGACUGUUUUAAGUUGUAGAAGGCGAUACAUGAGGAUCACCCAUGUUUAUGGGCAU [LRO-Ex6-12] (puzzle: Exclusion 6) | – | – | – | – | 169 | – |
| AGGGAACAUGAGGAUCACCCAUGUGAGGAUAUACAAAAGAAAAGAAAAGAAAGAAGAAGUAGAAGGUACAAGAA [Neferka] (Eterna round: R96, puzzle: Exclusion 1) | 32.4 | 26.9 | 32.8 | – | – | – |
| CGGUGUAACGUAGGAUAUCAACGCAACUGACGAUGAGAAGGACGACAUGAGGAUCACCCAUGUGAUUUCUCAAUAUUAUACAUC [Prohibition 86 - Jieux - Exclusion NG 1] (Eterna round: R96, puzzle: Exclusion NG 1) | 339 | 41.9 | 63.4 | – | – | – |
| UCGUUCCGUGUAGGAUAUUGGCCUCCCUCGGGCCGAGAAGGACAUGAGGAUCACCCAUGUAUGUUAUUAUCGCGCGUGGCGCAU [Design 89] (Eterna round: R96, puzzle: Exclusion NG 1) | 113 | 14.5 | 20.8 | – | – | – |
| GGAUCGAAAGUGAGGAUAUACCACUGGAUACAGUGGUAGAAGGCACAUGAGGAUCACCCAUGUCCUUACGAUCC [Fiskers BMX 4 - 48] (puzzle: Brourd's mod of Exclusion 4) | – | – | – | – | 20.5 | – |
| CCCUCACUUGAGGAUCACCCAAGUCAGGAUAUCUCCCACCCGGCAACAACCGGGUGCCAGAGAAGGGACUCAAA [Xemaques] (Eterna round: R97, puzzle: Exclusion 1) | 17.9 | – | 17 | – | – | – |
| ACCAAUCAUGUAGGAUAUGCGUGGCGAAGCUAUGCAGAAGGACAUGAGGAUCACCCAUGUGCUUCCGUCUGCGUACAGACGGUA [Mat - Exclusion NG 1 - Mod of JL - D17] (Eterna round: R96, puzzle: Exclusion NG 1) | 49.2 | 38.3 | 92.3 | – | – | – |
| UCCUCACAUGAGGAUCACCCAUGUCAGGAUAUGCGCGGCCAAAAGGGCUGCUAAGGCAGCAGAAGGGACGUGAA [Rarequtece] (puzzle: Exclusion 1) | – | – | – | 18.7 | 14.1 | 15 |
